Experimental data: paper PMC13464484, “Ancestral proteins trace the emergence of substrate specificity and oligomerization within bacterial DEDDy dinucleases” (Science Advances, 2026)

What was measured:
[1] = biological target: diDNase ortholog from Actinomadura (Actinomadura (genus only)); experiment: SEC-MALS; purified protein at 1 to 2 mg/ml (~40 to 80 uM) on Superdex 200 Increase 10/300 GL in gel-filtration buffer (25 mM Hepes-NaOH, 150 mM NaCl, pH 7.5; 500 mM NaCl for ancestor A0), room temperature
[2] = biological target: Alphaproteobacterial NrnC ortholog from Sphingomonas (Sphingomonas (genus only)); experiment: mass photometry; protein at 100 nM in phosphate-buffered saline, TwoMP instrument
[3] = biological target: diDNase ortholog from Mycobacterium (Mycobacterium (genus only)); experiment: […] (~40 to 80 uM) […], pH 7.5; […], room temperature
[4] = biological target: diDNase ortholog from Nocardia (Nocardia (genus only)); experiment: SEC-MALS; purified protein at 1 to 2 mg/ml (~40 to 80 uM) on Superdex 200 Increase 10/300 GL in gel-filtration buffer (25 mM Hepes-NaOH, 150 mM NaCl, pH 7.5; 500 mM NaCl for ancestor A0), room temperature
[5] = biological target: NrnC ortholog from Methylobacter (Methylobacter (genus only)); experiment: as above
[6] = biological target: NrnC ortholog from Thermosynechococcus (Thermosynechococcus (genus only)); experiment: as above
[7] = biological target: the molecule itself; experiment: mass photometry; protein at 100 nM in phosphate-buffered saline, TwoMP instrument

Q: With “diDNase ortholog from Actinomadura (enzyme)” as the molecule, how does the stoichiometry N [1] read?
A: The stoichiometry N was 2.

Q: How did the percent dimers [2] turn out when “Alphaproteobacterial NrnC ortholog from Sphingomonas (enzyme)” was run?
A: The percent dimers was > 85%.

Q: What about the stoichiometry N [2] of the same molecule?
A: The stoichiometry N was 2.

Q: With “diDNase ortholog from Mycobacterium (enzyme)” as the molecule, how does the stoichiometry N [3] read?
A: The stoichiometry N was 2.

Q: For diDNase ortholog from Nocardia (enzyme), which stoichiometry N [4] is on record?
A: The stoichiometry N was 2.

Q: For “NrnC ortholog from Methylobacter (enzyme)”, which stoichiometry N [5] is on record?
A: The stoichiometry N was 8.

Q: “NrnC ortholog from Thermosynechococcus (enzyme)” was tested. Which stoichiometry N [6] did it give?
A: The stoichiometry N was 8.

B1: Alphaproteobacterial NrnC ortholog from Caulobacter (enzyme)
chain: MANFVHEGDLPDGVFADAEIIAIDSETMGLRLRRDPLCVVQLSAGDGDAHVVRLSRPDYDCPNLKALLTNPKVLKLFHFGRFDIAMFELHLGVVTAPVYCTKIASKLARTYTDRHGLKDVTRELLGVELSKVQQSSDWGAPSLSVDQVAYAASDVLHLHGLRLKLNAMLEREGRMALAQHAFDYLPHRASLDLAGWEEMDIFAHS
Q: Which “stoichiometry N” value [7] does the source give for B1 here?
A: Its value is 2.
